Results: patent publication US20080213256A1 (MICROMET, published 2008)

Experiments:
EpCAM [1] = target: T1, EpCAM (UniProt P16422 24-314, limits assumed); test: FACS on Kato III cells, CHO supernatant (FIG. 2C)
T1 construct: whole, on cells; also called EpCAM on EpCAM positive Kato III cells
T1 sequence (looked up): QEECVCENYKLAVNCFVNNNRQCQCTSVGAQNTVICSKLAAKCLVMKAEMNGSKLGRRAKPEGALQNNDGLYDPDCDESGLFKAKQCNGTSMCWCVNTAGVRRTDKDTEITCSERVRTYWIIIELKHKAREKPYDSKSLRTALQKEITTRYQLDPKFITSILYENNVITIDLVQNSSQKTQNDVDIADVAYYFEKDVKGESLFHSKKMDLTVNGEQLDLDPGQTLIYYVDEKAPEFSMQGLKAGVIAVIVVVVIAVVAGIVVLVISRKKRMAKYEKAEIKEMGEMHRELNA

EpCAM [2] = target: T1, EpCAM; test: FACS on KatoIII cells, detection via His tag
human CD3 complex = human CD3 complex (human, UniProt P07766 23-207; P04234 22-171; P09693 23-182); test: cell-based or functional assay
CD19 = target: T2, CD19 (human, UniProt P15391 20-556); test: FACS on Nalm6 cells, detection via His tag
T2 construct: whole, on cells; also called CD19 on CD19 positive Nalm 6 cells; NALM-6
T2 sequence (looked up): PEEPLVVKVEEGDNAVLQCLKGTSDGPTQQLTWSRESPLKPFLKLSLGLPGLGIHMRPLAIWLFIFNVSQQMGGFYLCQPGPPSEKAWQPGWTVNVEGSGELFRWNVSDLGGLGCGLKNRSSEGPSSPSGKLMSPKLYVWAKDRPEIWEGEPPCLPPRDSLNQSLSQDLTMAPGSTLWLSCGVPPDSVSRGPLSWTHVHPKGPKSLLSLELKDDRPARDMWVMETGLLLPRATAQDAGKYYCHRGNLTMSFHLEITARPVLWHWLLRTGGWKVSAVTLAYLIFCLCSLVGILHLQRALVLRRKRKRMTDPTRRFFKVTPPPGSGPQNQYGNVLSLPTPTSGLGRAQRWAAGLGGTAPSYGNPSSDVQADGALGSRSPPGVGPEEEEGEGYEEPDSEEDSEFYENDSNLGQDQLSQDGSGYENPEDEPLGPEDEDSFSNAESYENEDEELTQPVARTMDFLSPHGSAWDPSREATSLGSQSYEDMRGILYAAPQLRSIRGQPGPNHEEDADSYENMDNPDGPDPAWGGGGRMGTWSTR
Description: CD19 positive Nalm 6 cells (human B cell precursor leukaemia) and CD3 positive Jurkat cells (human T cell leukemia) were used. 200,000 Nalm 6 cells and 200,000 Jurkat cells were incubated with 50 μl the pure cell culture supernatant of CHO cells transfected with the anti-CD19xhum. anti-CD3 specific polypeptide for 30 min on ice. The cells were washed twice in PBS. Then the binding of the construct was detected via its C-terminal Histidin Tag with a murine Penta H is antibody (diluted 1:20 in 50 μl PBS with 2% FCS; Qiagen) followed by a washing step and a Phycoerythrin conjugated Fc gamma specific antibody (Dianova), diluted 1:100 in 50 μl PBS with 2% FCS (FIG. 2A, thick line). As negative control fresh cell culture medium instead of cell culture supernatant was used (FIG. 2, thin line).
Cells were analysed by flow cytometry on a FACS-Calibur (Becton Dickinson, Heidelberg). FACS staining and measuring of the fluorescence intensity were performed as described in Current Protocols in Immunology (Coligan, Kruisbeek, Margulies, Shevach and Strober, Wiley-Interscience, 2002). The binding activity of the bispecific binding molecule was compared to the binding activity of the corresponding control bispecific antibody with the humanized OKT3 part as described in prior art.

B1: bispecific anti-EpCAM (5-10)x hum. anti-CD3 antibody construct (SEQ ID NO.: 36) (bispecific antibody)
chain: ELVMTQSPSSLTVTAGEKVTMSCKSSQSLLNSGNQKNYLTWYQQKPGQPPKLLIYWASTRESGVPDRFTGSGSGTDFTLTISSVQAEDLAVYYCQNDYSYPLTFGAGTKLEIKGGGGSGGGGSGGGGSEVQLLEQSGAELVRPGTSVKISCKASGYAFTNYWLGWVKQRPGHGLEWIGDIFPGSGNIHYNEKFKGKATLTADKSSSTAYMQLSSLTFEDSAVYFCARLRNWDEPMDYWGQGTTVTVSSGGGGSQVQLVQSGGGVVQPGRSLRLSCKSSGYTFTRYTMHWVRQAPGKGLEWIGYINPSRGYTNYNQKVKDRFTISRDNSKNTAFLQMDSLRPEDTGVYFCARYYDDHYCLDYWGQGTPVTVSSVEGGSGGSGGSGGSGGVDDIQMTQSPSSLSASVGDRVTITCRASSSVSYMNWYQQTPGKAPKRWIYDTSKVASGVPSRFSGSGSGTDYTFTISSLQPEDIATYYCQQWSSNPLTFGQGTKLQIT
notes: Bispecific single chain Fv, tested as CHO culture supernatant
binding result (EpCAM [1]): binds

B2: bispecific anti-EpCAM (3-1)x hum. anti-CD3 antibody construct (SEQ ID NO.: 34) (bispecific antibody)
chain: ELVMTQSPSYLAASPGETITINCRASKSISKYLAWYQEKPGKTNKLLIYSGSTLQSGIPSRFSGSGSGTDFTLTISSLEPEDFAMYYCQQHNEYPYTFGGGTKLEIKGGGGSGGGGSGGGGSEVQLLEQSGAELVKPGASVKISCKASGYAFTNYWLGWVKQRPGHGLEWIGDLFPGSGNTHYNERFRGKATLTADKSSSTAFMQLSSLTSEDSAVYFCARLRNWDEAMDYWGQGTTVTVSSGGGGSQVQLVQSGGGVVQPGRSLRLSCKSSGYTFTRYTMHWVRQAPGKGLEWIGYINPSRGYTNYNQKVKDRFTISRDNSKNTAFLQMDSLRPEDTGVYFCARYYDDHYCLDYWGQGTPVTVSSVEGGSGGSGGSGGSGGVDDIQMTQSPSSLSASVGDRVTITCRASSSVSYMNWYQQTPGKAPKRWIYDTSKVASGVPSRFSGSGSGTDYTFTISSLQPEDIATYYCQQWSSNPLTFGQGTKLQIT
notes: as for B1
binding result (EpCAM [2]): binds

B3: bispecific anti-CD19xhum. anti-CD3 antibody construct (SEQ ID NO.: 20) (bispecific antibody)
chain: DIQLTQSPASLAVSLGQRATISCKASQSVDYDGDSYLNWYQQIPGQPPKLLIYDASNLVSGIPPRFSGSGSGTDFTLNIHPVEKVDAATYHCQQSTEDPWTFGGGTKLEIKGGGGSGGGGSGGGGSQVQLQQSGAELVRPGSSVKISCKASGYAFSSYWMNWVKQRPGQGLEWIGQIWPGDGDTNYNGKFKGKATLTADESSSTAYMQLSSLASEDSAVYFCARRETTTVGRYYYAMDYWGQGTTVTVSSGGGGSQVQLVQSGGGVVQPGRSLRLSCKSSGYTFTRYTMHWVRQAPGKGLEWIGYINPSRGYTNYNQKVKDRFTISRDNSKNTAFLQMDSLRPEDTGVYFCARYYDDHYCLDYWGQGTPVTVSSVEGGSGGSGGSGGSGGVDDIQMTQSPSSLSASVGDRVTITCRASSSVSYMNWYQQTPGKAPKRWIYDTSKVASGVPSRFSGSGSGTDYTFTISSLQPEDIATYYCQQWSSNPLTFGQGTKLQIT
notes: Bispecific single chain Fv made in CHO cells; FACS used raw culture supernatant; the cytotoxicity assay used purified protein; also called anti-CD19xhum. anti-CD3 (improved hum. OKT3); bispecific humanized improved CD3 (hum. anti-CD3)
cytotoxic activity (EC50), calcein release from NALM-6 target cells with CD4-positive CB15 T-cells (human CD3 complex): 0.05 ng/mL
binding result (CD19): binds
